# PMC2806001, “Identification of Peroxiredoxin 1 as a novel interaction partner for the lifespan regulator protein p66Shc” (Aging, 2009)
# Where a chain is given by its changes, count along the chain named. Where “and” joins values, the source holds several entries; their conditions need not be identical. Equal values may be shown once.
# B1: p66CH2CB WT (N-terminal domains CH2 and CB of p66Shc, residues 1-150) (domain or fragment, UniProt P29353-1 1-150, looked up)
# chain: MDLLPPKPKYNPLRNESLSSLEEGASGSTPPEELPSPSASSLGPILPPLPGDDSPTTLCSFFPRMSNLRLANPAGGRPGSKGEPGRAADDGEGIVGAAMPDSGPLPLLQDMNKLSGGGGRRTRVEGGQLGGEEWTRHGSFVNKPTRGWLH
# notes: p66Shc (largest polypeptide of the shcA locus), residues 1-150 (CH2 and CB domains); Exists as a reduced dimer and an oxidised, disulfide-bridged tetramer; used as a mixture or as isolated states; also called p66Shc N-terminal domain; source: E. coli BL21(DE3)Rosetta2, purified (Talon resin, size exclusion on superose 12)
# B2: p66CH2CB-Ser36Asp (domain or fragment, UniProt P29353 1-150, looked up)
# chain: B1 chain with S36D
# notes: p66Shc, residues 1-150 (CH2 and CB domains), Ser36Asp phosphomimetic; Dimer and tetramer forms were both used; also called Ser36Asp mutant; p66CH2CB-Ser36Asp mutant simulating Ser36 phosphorylation; source: E. coli BL21(DE3)Rosetta2, purified (Talon resin, size exclusion on superose 12)
# B3: Peroxiredoxin 1 (Prx1) WT, recombinant (enzyme, mouse, UniProt P35700 1-199, looked up)
# chain: MSSGNAKIGYPAPNFKATAVMPDGQFKDISLSEYKGKYVVFFFYPLDFTFVCPTEIIAFSDRADEFKKLNCQVIGASVDSHFCHLAWINTPKKQGGLGPMNIPLISDPKRTIAQDYGVLKADEGISFRGLFIIDDKGILRQITINDLPVGRSVDEIIRLVQAFQFTDKHGEVCPAGWKPGSDTIKPDVNKSKEYFSKQK
# notes: Peroxiredoxin 1, gene PCR-amplified from mouse colon cDNA, cloned into pET151/D-Topo; Mainly a decamer (five dimers) on the BN-gel; also called decameric Prx1; source: E. coli BL21(DE3)Rosetta2, purified (Talon resin, size exclusion on superose 12); copies: 10
# B4: Prx1-Cys83Ser (enzyme, mouse, UniProt P35700 1-199, looked up)
# chain: B3 chain with C83S
# notes: Peroxiredoxin 1 from mouse colon cDNA in pET151/D-Topo, Cys83Ser; Constitutively dimeric; also called Cys83Ser regulatory mutant; dimeric Prx1-Cys83Ser mutant; source: E. coli BL21(DE3)Rosetta2, purified (Talon resin, size exclusion on superose 12)
# B5: Prx1-Cys52Ser (enzyme, mouse, UniProt P35700 1-199, looked up)
# chain: B3 chain with C52S
# notes: Peroxiredoxin 1 from mouse colon cDNA in pET151/D-Topo, Cys52Ser (peroxidasic cysteine); also called Prx1-Cys52Ser active site mutant; source: E. coli BL21(DE3)Rosetta2, purified (Talon resin, size exclusion on superose 12); copies: 10
# Legend:
# [1] = target: the molecule itself; test: SEC; oligomeric states separated on a superose 12 column in 20 mM Tris pH 7.8 + 150 mM NaCl
# [2] = target: the molecule itself; test: native gel or EMSA; BN-PAGE of purified recombinant proteins incubated for 1 hour at room temperature (20 μg p66CH2CB with 40 μg Prx1 WT or 20 μg Prx1-Cys83Ser); bands cut out and separated in a second, denaturing SDS-PAGE dimension
# [3] = target: B1; test: as above; details: both partners purified
# [4] = target: the molecule itself; test: native gel or EMSA; BN-PAGE; 15 μg p66CH2CB with 30 μg decameric Prx1-Cys52Ser and 5/10/20 μg Trx1 in the presence of 3 mM EDTA
Binder,stoichiometry N [1],stoichiometry N [2],other results
B1,2,4,
B2,2 and 4,,
B3,,,stoichiometry N [3]: 1
B4,,2,
B5,,,stoichiometry N [4]: 10
